In the MegaScale stability set (Tsuboyama et al. 2023):

B1: EHEE_rd2_0601 (parent)
chain: TYTYKLTDEEASRRAEDEWRNRGYDVRVRNNNGTWEVEVR
B2: 2M8U (parent)
chain: TKAQVIEAFKVFDRDGNGYVTVDYLRKVLNELGDMMPADEIEEMIYEADPQNSGYVQYETFVGMLFL

Variants of: B1
Test: folding stability dG (cDNA display proteolysis); higher = more stable
Conditions: PBS, room temperature

In order of rising “folding stability dG” value:
1. Y4G  -0.985 kcal/mol
2. Y4N  -0.767 kcal/mol
3. L6R  -0.655 kcal/mol
4. S12D  -0.63 kcal/mol
5. A11P  -0.502 kcal/mol
6. Y4S  -0.488 kcal/mol
7. D8R  -0.434 kcal/mol
8. D8K  -0.424 kcal/mol
9. Y4A  -0.411 kcal/mol
10. Y4T  -0.316 kcal/mol
11. Y4K  -0.308 kcal/mol
12. Y4P  -0.228 kcal/mol
13. L6P  -0.21 kcal/mol
14. Y4D  -0.109 kcal/mol
15. L6K  -0.09 kcal/mol
16. T3P  -0.035 kcal/mol
17. D8V  -0.022 kcal/mol
18. T3G  0.036 kcal/mol
19. T3D  0.044 kcal/mol
20. E9N  0.05 kcal/mol
21. Y2P  0.083 kcal/mol
22. T3E  0.117 kcal/mol
23. D8Q  0.142 kcal/mol
24. D8M  0.146 kcal/mol
25. Y4H  0.191 kcal/mol
26. E9T  0.198 kcal/mol
27. D8L  0.261 kcal/mol
28. D8A  0.271 kcal/mol
29. Y4Q  0.276 kcal/mol
30. E9D  0.289 kcal/mol
31. D8Y  0.298 kcal/mol
32. D8I  0.306 kcal/mol
33. D8W  0.339 kcal/mol
34. D8H  0.365 kcal/mol
35. Y2D  0.375 kcal/mol
36. L6D  0.391 kcal/mol
37. Y2G  0.413 kcal/mol
38. Y4E  0.419 kcal/mol
39. D8F  0.427 kcal/mol
40. A11I  0.447 kcal/mol
41. A11V  0.486 kcal/mol
42. T3N  0.532 kcal/mol
43. A11R  0.546 kcal/mol
44. T3A  0.556 kcal/mol
45. T3Q  0.604 kcal/mol
46. Y2S  0.609 kcal/mol
47. E9S  0.61 kcal/mol
48. L6N  0.622 kcal/mol
49. A11Y  0.624 kcal/mol
50. E9G  0.631 kcal/mol
51. L6E  0.639 kcal/mol
52. K5P  0.658 kcal/mol
53. D8E  0.662 kcal/mol
54. A11F  0.664 kcal/mol
55. A11K  0.673 kcal/mol
56. Y2N  0.674 kcal/mol
57. Y2E  0.682 kcal/mol
58. K5G  0.688 kcal/mol
59. A11W  0.697 kcal/mol
60. A11N  0.709 kcal/mol
61. A11G  0.768 kcal/mol
62. E9R  0.802 kcal/mol
63. E9H  0.807 kcal/mol
64. D8G  0.808 kcal/mol
65. T1E  0.815 kcal/mol
66. E9P  0.822 kcal/mol
67. E9K  0.834 kcal/mol
68. K5D  0.851 kcal/mol
69. Y4V  0.852 kcal/mol
70. T3H  0.873 kcal/mol
71. A11H  0.875 kcal/mol
72. L6Q  0.88 kcal/mol
73. E9V  0.885 kcal/mol
74. T3S  0.898 kcal/mol
75. L6G  0.912 kcal/mol
76. T1D  0.915 kcal/mol
77. E9I  0.934 kcal/mol
78. E9M  0.936 kcal/mol
79. Y2A  0.941 kcal/mol
80. A11L  0.971 kcal/mol
81. E10P  1.02 kcal/mol
82. T1Q  1.03 kcal/mol
83. Y2Q  1.04 kcal/mol
84. E10R  1.06 kcal/mol
85. E9Q  1.07 kcal/mol
86. D8C  1.07 kcal/mol
87. E10H  1.09 kcal/mol
88. E10G  1.1 kcal/mol
89. A11M  1.11 kcal/mol
90. E10N  1.12 kcal/mol
91. T3R  1.12 kcal/mol
92. E9A  1.12 kcal/mol
93. A11D  1.12 kcal/mol
94. Y4W  1.12 kcal/mol
95. T3K  1.13 kcal/mol
96. L6W  1.14 kcal/mol
97. E9L  1.14 kcal/mol
98. Y4M  1.14 kcal/mol
99. T1P  1.15 kcal/mol
100. L6I  1.15 kcal/mol
101. Y4C  1.16 kcal/mol
102. T3M  1.18 kcal/mol
103. T1N  1.19 kcal/mol
104. E10K  1.19 kcal/mol
105. A11T  1.19 kcal/mol
106. E10F  1.2 kcal/mol
107. E10S  1.22 kcal/mol
108. A11Q  1.22 kcal/mol
109. E10T  1.23 kcal/mol
110. L6S  1.23 kcal/mol
111. T3W  1.24 kcal/mol
112. E9W  1.26 kcal/mol
113. E10V  1.27 kcal/mol
114. T1K  1.28 kcal/mol
115. E10W  1.28 kcal/mol
116. E10Y  1.29 kcal/mol
117. E9F  1.29 kcal/mol
118. E10I  1.3 kcal/mol
119. K5E  1.31 kcal/mol
120. T1M  1.33 kcal/mol
121. Y2K  1.33 kcal/mol
122. E10L  1.34 kcal/mol
123. T1R  1.35 kcal/mol
124. T3Y  1.36 kcal/mol
125. Y4L  1.36 kcal/mol
126. T1L  1.37 kcal/mol
127. T1G  1.37 kcal/mol
128. T3F  1.37 kcal/mol
129. Y2H  1.37 kcal/mol
130. E10D  1.38 kcal/mol
131. Y2T  1.38 kcal/mol
132. K5N  1.38 kcal/mol
133. K5A  1.38 kcal/mol
134. L6A  1.4 kcal/mol
135. T1A  1.41 kcal/mol
136. E10Q  1.41 kcal/mol
137. E10M  1.41 kcal/mol
138. Y2L  1.41 kcal/mol
139. T1H  1.44 kcal/mol
140. T3L  1.46 kcal/mol
141. Y2M  1.46 kcal/mol
142. D8N  1.47 kcal/mol
143. L6H  1.48 kcal/mol
144. A11E  1.5 kcal/mol
145. K5R  1.56 kcal/mol
146. E9Y  1.58 kcal/mol
147. A11S  1.58 kcal/mol
148. Y2R  1.58 kcal/mol
149. Y4I  1.58 kcal/mol
150. K5S  1.58 kcal/mol
151. T7R  1.61 kcal/mol
152. T1S  1.62 kcal/mol
153. T7N  1.62 kcal/mol
154. T7I  1.62 kcal/mol
155. T7V  1.63 kcal/mol
156. T7S  1.63 kcal/mol
157. Y2V  1.63 kcal/mol
158. T7W  1.64 kcal/mol
159. T7G  1.69 kcal/mol
160. T7H  1.69 kcal/mol
161. Y2I  1.69 kcal/mol
162. K5Q  1.71 kcal/mol
163. K5M  1.72 kcal/mol
164. T1F  1.73 kcal/mol
165. T1I  1.73 kcal/mol
166. D8T  1.74 kcal/mol
167. K5H  1.74 kcal/mol
168. E10A  1.75 kcal/mol
169. Y2F  1.76 kcal/mol
170. T7M  1.78 kcal/mol
171. T7K  1.79 kcal/mol
172. L6T  1.8 kcal/mol
173. T1Y  1.81 kcal/mol
174. T7D  1.81 kcal/mol
175. T3V  1.82 kcal/mol
176. T7L  1.82 kcal/mol
177. K5W  1.83 kcal/mol
178. K5L  1.84 kcal/mol
179. T7E  1.85 kcal/mol
180. T1V  1.86 kcal/mol
181. T7Q  1.86 kcal/mol
182. E10C  1.88 kcal/mol
183. D8S  1.9 kcal/mol
184. T7F  1.91 kcal/mol
185. T3I  1.92 kcal/mol
186. T7A  1.94 kcal/mol
187. Y4F  1.94 kcal/mol
188. K5T  1.95 kcal/mol
189. L6M  1.97 kcal/mol
190. K5V  1.97 kcal/mol
191. T7C  2 kcal/mol
192. T7Y  2.02 kcal/mol
193. Y2W  2.04 kcal/mol
194. T7P  2.05 kcal/mol
195. L6V  2.08 kcal/mol
196. K5I  2.2 kcal/mol
197. S12C  2.33 kcal/mol
198. K5F  2.34 kcal/mol
199. T3C  2.36 kcal/mol
200. K5Y  2.64 kcal/mol
201. T1W  2.65 kcal/mol
202. S12A  3.22 kcal/mol
203. L6Y  3.41 kcal/mol
204. L6F  3.77 kcal/mol

Variants of: B2
Test: as above
Conditions: PBS, room temperature

In order of falling “folding stability dG” value:
1. M64R  4.29 kcal/mol
2. L67D  4.28 kcal/mol
3. G63D  4.19 kcal/mol
4. M64K  4.14 kcal/mol
5. G63E  4.11 kcal/mol
6. L67A  3.98 kcal/mol
7. G63N  3.97 kcal/mol
8. L67E  3.96 kcal/mol
9. L67P  3.9 kcal/mol
10. M64N  3.83 kcal/mol
11. L67R  3.81 kcal/mol
12. L67Q  3.8 kcal/mol
13. G63M  3.79 kcal/mol
14. G63T  3.77 kcal/mol
15. M64L  3.74 kcal/mol
16. G63H  3.72 kcal/mol
17. M64H  3.69 kcal/mol
18. L65M  3.67 kcal/mol
19. L67N  3.67 kcal/mol
20. G63A  3.66 kcal/mol
21. G63S  3.63 kcal/mol
22. L67H  3.62 kcal/mol
23. L67C  3.61 kcal/mol
24. L67S  3.6 kcal/mol
25. F61I  3.6 kcal/mol
26. M64W  3.59 kcal/mol
27. G63C  3.58 kcal/mol
28. L67K  3.57 kcal/mol
29. G63R  3.54 kcal/mol
30. M64Q  3.53 kcal/mol
31. L67G  3.49 kcal/mol
32. G63Y  3.48 kcal/mol
33. G63Q  3.47 kcal/mol
34. L67M  3.46 kcal/mol
35. F61V  3.46 kcal/mol
36. G63K  3.45 kcal/mol
37. G63V  3.42 kcal/mol
38. G63I  3.41 kcal/mol
39. M64C  3.37 kcal/mol
40. G63L  3.36 kcal/mol
41. M64F  3.34 kcal/mol
42. G63W  3.31 kcal/mol
43. L67I  3.3 kcal/mol
44. L67T  3.3 kcal/mol
45. M64E  3.29 kcal/mol
46. M64T  3.29 kcal/mol
47. V62I  3.29 kcal/mol
48. G63F  3.29 kcal/mol
49. L65F  3.28 kcal/mol
50. L67V  3.28 kcal/mol
51. M64Y  3.25 kcal/mol
52. L65W  3.25 kcal/mol
53. M64D  3.23 kcal/mol
54. L67F  3.22 kcal/mol
55. M64A  3.21 kcal/mol
56. F66W  3.19 kcal/mol
57. M64I  3.15 kcal/mol
58. V62A  3.15 kcal/mol
59. L65I  3.11 kcal/mol
60. M64S  3.08 kcal/mol
61. L67W  3.08 kcal/mol
62. L67Y  3.08 kcal/mol
63. M64G  3.04 kcal/mol
64. L65Y  3.04 kcal/mol
65. M64V  3.03 kcal/mol
66. V62T  3 kcal/mol
67. F66D  2.96 kcal/mol
68. F66N  2.92 kcal/mol
69. F66M  2.88 kcal/mol
70. F66P  2.87 kcal/mol
71. F66C  2.86 kcal/mol
72. F66V  2.84 kcal/mol
73. F66I  2.84 kcal/mol
74. F66T  2.83 kcal/mol
75. F66R  2.78 kcal/mol
76. V62L  2.76 kcal/mol
77. F66K  2.73 kcal/mol
78. F66S  2.72 kcal/mol
79. L65V  2.72 kcal/mol
80. F66Y  2.71 kcal/mol
81. F66H  2.67 kcal/mol
82. V62M  2.67 kcal/mol
83. M64P  2.66 kcal/mol
84. L65H  2.65 kcal/mol
85. F61L  2.65 kcal/mol
86. F66A  2.62 kcal/mol
87. F61W  2.62 kcal/mol
88. L65C  2.6 kcal/mol
89. F66L  2.59 kcal/mol
90. F66G  2.57 kcal/mol
91. F66E  2.56 kcal/mol
92. F66Q  2.55 kcal/mol
93. V62C  2.48 kcal/mol
94. V62S  2.36 kcal/mol
95. F61M  2.31 kcal/mol
96. L65N  2.26 kcal/mol
97. L65A  2.23 kcal/mol
98. L65R  2.22 kcal/mol
99. L65G  2.19 kcal/mol
100. F61Y  2.17 kcal/mol
101. G63P  2.16 kcal/mol
102. V62F  2.15 kcal/mol
103. V62Y  2.11 kcal/mol
104. V62W  2.11 kcal/mol
105. L65D  1.97 kcal/mol
106. V62K  1.97 kcal/mol
107. L65T  1.96 kcal/mol
108. L65K  1.94 kcal/mol
109. V62Q  1.94 kcal/mol
110. V62R  1.93 kcal/mol
111. V62G  1.93 kcal/mol
112. F61T  1.87 kcal/mol
113. L65Q  1.84 kcal/mol
114. L65E  1.82 kcal/mol
115. L65S  1.7 kcal/mol
116. V62H  1.7 kcal/mol
117. V62N  1.68 kcal/mol
118. V62E  1.66 kcal/mol
119. L65P  1.55 kcal/mol
120. F61K  1.35 kcal/mol
121. F61S  1.33 kcal/mol
122. F61N  1.32 kcal/mol
123. F61R  1.29 kcal/mol
124. V62D  1.28 kcal/mol
125. V62P  1.22 kcal/mol
126. F61Q  1.17 kcal/mol
127. F61H  1.1 kcal/mol
128. F61G  0.903 kcal/mol
129. F61E  0.86 kcal/mol
130. F61P  0.783 kcal/mol
